Data as given in patent US20140087995A1 (published 2014).
Numbered stars: 1 amine (or outer) side, 2 acyl side, 3 side chain; on linkers, the order of the positions; unused ones are H or OH. Bridge positions count the residues as written; N and C are the ends. Side chains are listed from the residue outwards. Ends that are not written are not given here. * marks the point of attachment. C20 diacid = O=C(O)CCCCCCCCCCCCCCCCCCC(=O)*; γGlu = O=C(O)[C@H](CCC(=O)[*:2])N[*:1]; AEEA = NCCOCCOCC(=O)O

T1: human amylin receptor (amylin 3(a) receptor: human calcitonin receptor with RAMP-3) (human, UniProt P30988 25-474; O60896 24-148)
T1 construct: whole, on cells; also called hAmylin-R; hAmylinR
T1 sequence (looked up) 1: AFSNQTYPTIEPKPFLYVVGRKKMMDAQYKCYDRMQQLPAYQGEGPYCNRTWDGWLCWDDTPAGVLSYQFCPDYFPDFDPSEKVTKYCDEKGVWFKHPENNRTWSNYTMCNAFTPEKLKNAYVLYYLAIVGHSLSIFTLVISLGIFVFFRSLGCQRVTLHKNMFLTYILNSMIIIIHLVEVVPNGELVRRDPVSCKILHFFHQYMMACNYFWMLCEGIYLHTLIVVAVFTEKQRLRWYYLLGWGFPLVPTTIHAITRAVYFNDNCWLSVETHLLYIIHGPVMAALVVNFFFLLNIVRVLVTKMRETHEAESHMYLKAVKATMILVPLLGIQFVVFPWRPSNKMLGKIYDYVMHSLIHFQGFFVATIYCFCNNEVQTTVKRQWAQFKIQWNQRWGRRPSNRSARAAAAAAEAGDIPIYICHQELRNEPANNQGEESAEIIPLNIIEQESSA
T1 sequence (looked up) 2: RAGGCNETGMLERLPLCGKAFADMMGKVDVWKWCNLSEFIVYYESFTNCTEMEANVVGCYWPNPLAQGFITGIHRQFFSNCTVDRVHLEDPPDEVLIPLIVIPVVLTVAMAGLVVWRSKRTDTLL

B1: N^ε1-[2-[2-[2-[[(4S)-4-carboxy-4-(19-carboxynonadecanoylamino)butanoyl]amino]ethoxy]ethoxy]acetyl]-[Arg17,Pro21,Pro27,His34]-h-amylin (peptide)
peptide: K([AEEA-γGlu-C20 diacid])CNTATCATQRLANFLRHSSPNFGAIPSSTNVGHNTY-NH2
modifications: disulfide 2-7; N-terminus assumed
SMILES: CC[C@H](C)[C@H](NC(=O)[C@H](C)NC(=O)CNC(=O)[C@H](Cc1ccccc1)NC(=O)[C@H](CC(N)=O)NC(=O)[C@@H]1CCCN1C(=O)[C@H](CO)NC(=O)[C@H](CO)NC(=O)[C@H](Cc1c[nH]cn1)NC(=O)[C@H](CCCNC(=N)N)NC(=O)[C@H](CC(C)C)NC(=O)[C@H](Cc1ccccc1)NC(=O)[C@H](CC(N)=O)NC(=O)[C@H](C)NC(=O)[C@H](CC(C)C)NC(=O)[C@H](CCCNC(=N)N)NC(=O)[C@H](CCC(N)=O)NC(=O)[C@@H](NC(=O)[C@H](C)NC(=O)[C@@H]1CSSC[C@H](NC(=O)[C@@H](N)CCCCNC(=O)COCCOCCNC(=O)CC[C@H](NC(=O)CCCCCCCCCCCCCCCCCCC(=O)O)C(=O)O)C(=O)N[C@@H](CC(N)=O)C(=O)N[C@@H]([C@@H](C)O)C(=O)N[C@@H](C)C(=O)N[C@@H]([C@@H](C)O)C(=O)N1)[C@@H](C)O)C(=O)N1CCC[C@H]1C(=O)N[C@@H](CO)C(=O)N[C@@H](CO)C(=O)N[C@H](C(=O)N[C@@H](CC(N)=O)C(=O)N[C@H](C(=O)NCC(=O)N[C@@H](Cc1c[nH]cn1)C(=O)N[C@@H](CC(N)=O)C(=O)N[C@H](C(=O)N[C@@H](Cc1ccc(O)cc1)C(N)=O)[C@@H](C)O)C(C)C)[C@@H](C)O
notes: also called 76; compound 76
B2: N^ε1-[2-[2-[2-[[(4S)-4-carboxy-4-(19-carboxynonadecanoylamino)butanoyl]amino]ethoxy]ethoxy]acetyl]-[Arg17,Pro21,Pro27,Pro31,His35]-h-amylin (peptide)
peptide: K([AEEA-γGlu-C20 diacid])CNTATCATQRLANFLRHSSPNFGAIPSSTPVGSHTY-NH2
modifications: disulfide 2-7; N-terminus assumed
SMILES: CC[C@H](C)[C@H](NC(=O)[C@H](C)NC(=O)CNC(=O)[C@H](Cc1ccccc1)NC(=O)[C@H](CC(N)=O)NC(=O)[C@@H]1CCCN1C(=O)[C@H](CO)NC(=O)[C@H](CO)NC(=O)[C@H](Cc1c[nH]cn1)NC(=O)[C@H](CCCNC(=N)N)NC(=O)[C@H](CC(C)C)NC(=O)[C@H](Cc1ccccc1)NC(=O)[C@H](CC(N)=O)NC(=O)[C@H](C)NC(=O)[C@H](CC(C)C)NC(=O)[C@H](CCCNC(=N)N)NC(=O)[C@H](CCC(N)=O)NC(=O)[C@@H](NC(=O)[C@H](C)NC(=O)[C@@H]1CSSC[C@H](NC(=O)[C@@H](N)CCCCNC(=O)COCCOCCNC(=O)CC[C@H](NC(=O)CCCCCCCCCCCCCCCCCCC(=O)O)C(=O)O)C(=O)N[C@@H](CC(N)=O)C(=O)N[C@@H]([C@@H](C)O)C(=O)N[C@@H](C)C(=O)N[C@@H]([C@@H](C)O)C(=O)N1)[C@@H](C)O)C(=O)N1CCC[C@H]1C(=O)N[C@@H](CO)C(=O)N[C@@H](CO)C(=O)N[C@H](C(=O)N1CCC[C@H]1C(=O)N[C@H](C(=O)NCC(=O)N[C@@H](CO)C(=O)N[C@@H](Cc1c[nH]cn1)C(=O)N[C@H](C(=O)N[C@@H](Cc1ccc(O)cc1)C(N)=O)[C@@H](C)O)C(C)C)[C@@H](C)O
notes: also called 57; compound 57
B3: N^ε1-[2-[2-[2-[[(4S)-4-carboxy-4-(19-carboxynonadecanoylamino)butanoyl]amino]ethoxy]ethoxy]acetyl]-[Arg17,Pro21,Pro27,Pro29,Pro31]-h-amylin (peptide)
peptide: K([AEEA-γGlu-C20 diacid])CNTATCATQRLANFLRHSSPNFGAIPSPTPVGSNTY-NH2
modifications: disulfide 2-7; N-terminus assumed
SMILES: CC[C@H](C)[C@H](NC(=O)[C@H](C)NC(=O)CNC(=O)[C@H](Cc1ccccc1)NC(=O)[C@H](CC(N)=O)NC(=O)[C@@H]1CCCN1C(=O)[C@H](CO)NC(=O)[C@H](CO)NC(=O)[C@H](Cc1c[nH]cn1)NC(=O)[C@H](CCCNC(=N)N)NC(=O)[C@H](CC(C)C)NC(=O)[C@H](Cc1ccccc1)NC(=O)[C@H](CC(N)=O)NC(=O)[C@H](C)NC(=O)[C@H](CC(C)C)NC(=O)[C@H](CCCNC(=N)N)NC(=O)[C@H](CCC(N)=O)NC(=O)[C@@H](NC(=O)[C@H](C)NC(=O)[C@@H]1CSSC[C@H](NC(=O)[C@@H](N)CCCCNC(=O)COCCOCCNC(=O)CC[C@H](NC(=O)CCCCCCCCCCCCCCCCCCC(=O)O)C(=O)O)C(=O)N[C@@H](CC(N)=O)C(=O)N[C@@H]([C@@H](C)O)C(=O)N[C@@H](C)C(=O)N[C@@H]([C@@H](C)O)C(=O)N1)[C@@H](C)O)C(=O)N1CCC[C@H]1C(=O)N[C@@H](CO)C(=O)N1CCC[C@H]1C(=O)N[C@H](C(=O)N1CCC[C@H]1C(=O)N[C@H](C(=O)NCC(=O)N[C@@H](CO)C(=O)N[C@@H](CC(N)=O)C(=O)N[C@H](C(=O)N[C@@H](Cc1ccc(O)cc1)C(N)=O)[C@@H](C)O)C(C)C)[C@@H](C)O
notes: also called 54; compound 54
B4: N^ε1-[2-[2-[2-[[(4S)-4-carboxy-4-(19-carboxynonadecanoylamino)butanoyl]amino]ethoxy]ethoxy]acetyl]-[Arg17,Pro21,Pro27,Pro28,Pro34]-h-amylin (peptide)
peptide: K([AEEA-γGlu-C20 diacid])CNTATCATQRLANFLRHSSPNFGAIPPSTNVGPNTY-NH2
modifications: disulfide 2-7; N-terminus assumed
SMILES: CC[C@H](C)[C@H](NC(=O)[C@H](C)NC(=O)CNC(=O)[C@H](Cc1ccccc1)NC(=O)[C@H](CC(N)=O)NC(=O)[C@@H]1CCCN1C(=O)[C@H](CO)NC(=O)[C@H](CO)NC(=O)[C@H](Cc1c[nH]cn1)NC(=O)[C@H](CCCNC(=N)N)NC(=O)[C@H](CC(C)C)NC(=O)[C@H](Cc1ccccc1)NC(=O)[C@H](CC(N)=O)NC(=O)[C@H](C)NC(=O)[C@H](CC(C)C)NC(=O)[C@H](CCCNC(=N)N)NC(=O)[C@H](CCC(N)=O)NC(=O)[C@@H](NC(=O)[C@H](C)NC(=O)[C@@H]1CSSC[C@H](NC(=O)[C@@H](N)CCCCNC(=O)COCCOCCNC(=O)CC[C@H](NC(=O)CCCCCCCCCCCCCCCCCCC(=O)O)C(=O)O)C(=O)N[C@@H](CC(N)=O)C(=O)N[C@@H]([C@@H](C)O)C(=O)N[C@@H](C)C(=O)N[C@@H]([C@@H](C)O)C(=O)N1)[C@@H](C)O)C(=O)N1CCC[C@H]1C(=O)N1CCC[C@H]1C(=O)N[C@@H](CO)C(=O)N[C@H](C(=O)N[C@@H](CC(N)=O)C(=O)N[C@H](C(=O)NCC(=O)N1CCC[C@H]1C(=O)N[C@@H](CC(N)=O)C(=O)N[C@H](C(=O)N[C@@H](Cc1ccc(O)cc1)C(N)=O)[C@@H](C)O)C(C)C)[C@@H](C)O
notes: also called 55; compound 55
B5: N^ε1-[2-[2-[2-[[(4S)-4-carboxy-4-(19-carboxynonadecanoylamino)butanoyl]amino]ethoxy]ethoxy]acetyl]-[Arg17,Pro21,Pro27,Pro31]-h-amylin (peptide)
peptide: K([AEEA-γGlu-C20 diacid])CNTATCATQRLANFLRHSSPNFGAIPSSTPVGSNTY-NH2
modifications: disulfide 2-7; N-terminus assumed
SMILES: CC[C@H](C)[C@H](NC(=O)[C@H](C)NC(=O)CNC(=O)[C@H](Cc1ccccc1)NC(=O)[C@H](CC(N)=O)NC(=O)[C@@H]1CCCN1C(=O)[C@H](CO)NC(=O)[C@H](CO)NC(=O)[C@H](Cc1c[nH]cn1)NC(=O)[C@H](CCCNC(=N)N)NC(=O)[C@H](CC(C)C)NC(=O)[C@H](Cc1ccccc1)NC(=O)[C@H](CC(N)=O)NC(=O)[C@H](C)NC(=O)[C@H](CC(C)C)NC(=O)[C@H](CCCNC(=N)N)NC(=O)[C@H](CCC(N)=O)NC(=O)[C@@H](NC(=O)[C@H](C)NC(=O)[C@@H]1CSSC[C@H](NC(=O)[C@@H](N)CCCCNC(=O)COCCOCCNC(=O)CC[C@H](NC(=O)CCCCCCCCCCCCCCCCCCC(=O)O)C(=O)O)C(=O)N[C@@H](CC(N)=O)C(=O)N[C@@H]([C@@H](C)O)C(=O)N[C@@H](C)C(=O)N[C@@H]([C@@H](C)O)C(=O)N1)[C@@H](C)O)C(=O)N1CCC[C@H]1C(=O)N[C@@H](CO)C(=O)N[C@@H](CO)C(=O)N[C@H](C(=O)N1CCC[C@H]1C(=O)N[C@H](C(=O)NCC(=O)N[C@@H](CO)C(=O)N[C@@H](CC(N)=O)C(=O)N[C@H](C(=O)N[C@@H](Cc1ccc(O)cc1)C(N)=O)[C@@H](C)O)C(C)C)[C@@H](C)O
notes: also called 49; compound 49
B6: N^ε1-[2-[2-[2-[[(4S)-4-carboxy-4-(19-carboxynonadecanoylamino)butanoyl]amino]ethoxy]ethoxy]acetyl]-[Arg17,Pro21,Pro27,Pro29,Pro34]-h-amylin (peptide)
peptide: K([AEEA-γGlu-C20 diacid])CNTATCATQRLANFLRHSSPNFGAIPSPTNVGPNTY-NH2
modifications: disulfide 2-7; N-terminus assumed
SMILES: CC[C@H](C)[C@H](NC(=O)[C@H](C)NC(=O)CNC(=O)[C@H](Cc1ccccc1)NC(=O)[C@H](CC(N)=O)NC(=O)[C@@H]1CCCN1C(=O)[C@H](CO)NC(=O)[C@H](CO)NC(=O)[C@H](Cc1c[nH]cn1)NC(=O)[C@H](CCCNC(=N)N)NC(=O)[C@H](CC(C)C)NC(=O)[C@H](Cc1ccccc1)NC(=O)[C@H](CC(N)=O)NC(=O)[C@H](C)NC(=O)[C@H](CC(C)C)NC(=O)[C@H](CCCNC(=N)N)NC(=O)[C@H](CCC(N)=O)NC(=O)[C@@H](NC(=O)[C@H](C)NC(=O)[C@@H]1CSSC[C@H](NC(=O)[C@@H](N)CCCCNC(=O)COCCOCCNC(=O)CC[C@H](NC(=O)CCCCCCCCCCCCCCCCCCC(=O)O)C(=O)O)C(=O)N[C@@H](CC(N)=O)C(=O)N[C@@H]([C@@H](C)O)C(=O)N[C@@H](C)C(=O)N[C@@H]([C@@H](C)O)C(=O)N1)[C@@H](C)O)C(=O)N1CCC[C@H]1C(=O)N[C@@H](CO)C(=O)N1CCC[C@H]1C(=O)N[C@H](C(=O)N[C@@H](CC(N)=O)C(=O)N[C@H](C(=O)NCC(=O)N1CCC[C@H]1C(=O)N[C@@H](CC(N)=O)C(=O)N[C@H](C(=O)N[C@@H](Cc1ccc(O)cc1)C(N)=O)[C@@H](C)O)C(C)C)[C@@H](C)O
notes: also called 56; compound 56

target: T1, human amylin receptor (amylin 3(a) …); test: SPA displacement of 125I-rat amylin, hAmylin 3(a) receptor membranes
Method in brief: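 Membranes from BHK Amylin 3(a)/CRE-luc cells (35 ng/μL final) were mixed with SPA beads and test compounds in 50 mM Hepes pH 7.4 with 1 mM CaCl2, 5 mM MgCl₂, 0.1% OA and 0.02% Tween20. Incubation ran 120 min at 25° C with shaking; IC₅₀ came from one-site competition fitting.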

Going from B1 to B2, the IC50 falls from 215 pM to 115 pM (1.9-fold). The second is the more potent here.

B3 and B4 are within 1.5-fold of each other in IC50: 30 pM for the first, 42 pM for the second.

First: B5
Second: B6
The IC50 of the first is 24-fold higher: 1190 pM for the first, 49 pM for the second.

For K([AEEA-γGlu-C20 diacid])CNTATCATQRLANFLRHSSPNFGAIPPSTPVGSNTY-NH2 (disulfide 2-7, also called 53; compound 53), the IC50 was 52 pM.
